Assay [1] deals with human EGFR (human) (UniProt P00533). Put plainly: kinetics table of FIG. 2 (SPR is told in paragraph 123 for the other clones of the table); column head 10^5 (s-1M-1).
Assay [2] shares this target. Put plainly: kinetics table of FIG. 2 (SPR is told in paragraph 123 for the other clones of the table); column head 10^-4 (s-1).

B1: ER-2b (antibody, part only; not given: common light chain, V domains shown, part only)
VH: EVQLVESGGGLVQPGGSLRLSCAASGFNIYYAAMHWVRQAPGKGLEWVAFISPYYSYTSYADSVKGRFTISADTSKNTAYLQMNSLRAEDTAVYYCARYFHSSWYESSSPRAYYPGMDYWGQGTLVTVSS
What is called kon is the rate constant with which the complex forms. For orientation: koff means a measure of how fast the partners let go of each other. Read a low koff as slow dissociation. Regarding B1, the kon with human EGFR (human) [1] was 280000 M⁻¹ s⁻¹. The same molecule returned a koff in the assay with human EGFR (human) [2] of 5e-05 s⁻¹.

The values are drawn from patent publication US20240383988A1.
